This passage reports stoichiometry N results from article PMC5757783.

The assay deals with histone H2A-N38C (Xenopus laevis). The assay is described as follows: cross-linking.

Consider histone H2A-N38C (natural protein), for which the stoichiometry N was 2.
